Results from article PMC9692514, “Identification of a Novel p53 Modulator Endowed with Antitumoural and Antibacterial Activity through a Scaffold Repurposing Approach” (Pharmaceuticals, 2022).

Molecular target: T1, recombinant human His-tagged p53 protein (residues 1–312) (human, UniProt P04637 1-312)
T1 construct: p53, human, residues 1-312; source: final dialysis with 0.2 mM ZnCl2
Experiment: NMR antagonist-induced dissociation assay (AIDA), 1D proton spectra; Trp NHε side-chain signals of the MDM2–p53 complex; 0.1 mM proteins, 25 °C, 20 mM Tris-HCl, 150 mM KCl, pH 7.4, 5 mM β-mercaptoethanol, 0.02% NaN3; also after RM37 (0.2 mM)
Conditions: both partners purified

T1 sequence (P04637 1-312): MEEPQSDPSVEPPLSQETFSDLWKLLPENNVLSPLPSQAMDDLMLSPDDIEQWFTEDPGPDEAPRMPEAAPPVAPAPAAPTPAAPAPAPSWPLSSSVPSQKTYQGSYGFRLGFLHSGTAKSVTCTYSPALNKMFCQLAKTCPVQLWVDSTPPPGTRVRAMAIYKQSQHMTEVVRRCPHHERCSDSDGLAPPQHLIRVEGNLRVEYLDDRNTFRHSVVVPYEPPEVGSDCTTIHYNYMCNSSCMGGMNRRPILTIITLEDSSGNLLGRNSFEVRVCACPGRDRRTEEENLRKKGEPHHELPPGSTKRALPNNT

binding result: binds
B1: recombinant human His-tagged N-terminal region of MDM2 (residues 1–118) (domain or fragment, UniProt Q00987 1-118, looked up)
chain: MCNTNMSVPTDGAVTTSQIPASEQETLVRPKPLLLKLLKSVGAQKDTYTMKEVLFYLGQYIMTKRLYDEKQQHIVYCSNDLLGDLFGVPSFSVKEHRKIYTMIYRNLVVVNQQESSDS
notes: MDM2 (HDM2), human, N-terminal region, residues 1-118; Cloned in a derivative of the vector pET-46Ek/LIC (Novagen); that vector probably adds the His tag at the N-terminus (surmised); No cleavage of the tag is told; also called HDM2
